# Test results reported in paper doi:10.1101/2025.02.09.637349 (bioRxiv, 2025).
# B1: Thermochromatium tepidum form-IAq RuBisCO large subunit (RbcL) (natural protein, UniProt A0A6I6DX30 1-472, looked up)
# chain: MAKTYSAGVKEYRETYWMPNYTPKDTDILACFKITPQPGVPREEAAAAVAAESSTGTWTTVWTDLLTDLDYYKGRAYAIEDVPGDDTCFYAFIAYPIDLFEEGSVVNVFTSLVGNVFGFKAVRALRLEDVRFPIAYVMTCNGPPHGIQVERDILNKYGRPLLGCTIKPKLGLSAKNYGRAVYECLRGGLDFTKDDENVNSQPFMRWRQRFDFVMEAIDKAERETGERKGHYLNVTAPTPEEMYKRAEYAKEIGAPIIMHDYITGGFCANTGLAQWCRNNGVLLHIHRAMHAVLDRNPHHGIHFRVLTKILRLSGGDHLHTGTVVGKLEGDRQATLGWIDLLRESYVKEDRSRGIFFDQDWGAMPGAFAVASGGIHVWHMPALVTIFGDDSVLQFGGGTLGHPWGNAAGACANRVALEACIEARNQGIPIEKEGKEVLTKAAAHSPELKIAMETWKEIKFEFDSVDKLDVAHK
# Molecular target: the molecule itself
# Test: cryo-EM structure
protein,measurement,value
B1,stoichiometry N,8
